In PMC9307154:

Molecular target: Bovine leukemia virus retropepsin (BLV-PR), mature recombinant protease (Bovine leukemia virus)
Assay: enzyme kinetics (initial rate against enzyme concentration); dimer to monomers; BLV-PR 5-200 nM (as monomer) preincubated 15 min at 25°C in reaction buffer (250 mM phosphate pH 5.6, 500 mM NaCl, 10 mM EDTA, 5 mM DTT, 1% glycerol, 1% DMSO), then 1 uM MA-CA fluorogenic substrate, 37°C, rate of the first 3 min, fit of quadratic Eq 1

Question: Which Kd does the source give for “Bovine leukemia virus retropepsin (BLV-PR), mature recombinant protease (enzyme)” here?
Answer: 160 nM
